Our source for the NanoBiT Gαq–Gγ dissociation in HEK293T cells induced by the synthesized TA peptide; fold decrease of potency against WT PAR1 values is PMC11443083.

Assay [1] addresses T1, PAR1 receptor (1–425 amino acids) D256A (human) (UniProt P25116).
T1 sequence: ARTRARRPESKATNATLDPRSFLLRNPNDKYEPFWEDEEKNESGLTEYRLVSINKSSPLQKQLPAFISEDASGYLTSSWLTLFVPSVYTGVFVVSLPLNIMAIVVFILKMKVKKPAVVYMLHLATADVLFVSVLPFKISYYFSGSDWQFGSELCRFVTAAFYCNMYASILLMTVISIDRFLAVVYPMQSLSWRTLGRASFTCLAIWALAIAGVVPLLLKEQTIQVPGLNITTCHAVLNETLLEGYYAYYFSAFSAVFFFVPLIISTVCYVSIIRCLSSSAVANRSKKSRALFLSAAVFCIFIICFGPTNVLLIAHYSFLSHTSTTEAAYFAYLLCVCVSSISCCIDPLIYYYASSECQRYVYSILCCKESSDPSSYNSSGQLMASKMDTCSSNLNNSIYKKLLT

Assay [2] concerns the target T2, PAR1 receptor (1–425 amino acids) Y350A (human) (UniProt P25116).
T2 sequence: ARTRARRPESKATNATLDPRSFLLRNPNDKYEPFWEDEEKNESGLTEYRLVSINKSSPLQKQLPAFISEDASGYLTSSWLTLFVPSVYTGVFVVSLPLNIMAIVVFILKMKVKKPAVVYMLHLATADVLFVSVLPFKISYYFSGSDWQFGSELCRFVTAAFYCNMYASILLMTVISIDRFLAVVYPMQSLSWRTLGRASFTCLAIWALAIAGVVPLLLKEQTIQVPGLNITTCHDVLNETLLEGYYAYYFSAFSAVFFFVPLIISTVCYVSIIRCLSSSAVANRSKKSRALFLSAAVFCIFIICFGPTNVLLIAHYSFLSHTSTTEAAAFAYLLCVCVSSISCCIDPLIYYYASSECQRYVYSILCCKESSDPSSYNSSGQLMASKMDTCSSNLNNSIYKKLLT

B1: Synthesized TA peptide (SFLLRN) (peptide)
peptide: SFLLRN
With B1, the NanoBiT Gαq–Gγ dissociation in HEK293T cells induced by the synthesized TA peptide; fold decrease of potency against WT PAR1 in assay [1] was 33 fold; in assay [2], 158 fold.
